From paper PMC6521699
Values belong to the molecule of their own block, whether it stands above or below them.

How the values were obtained:
[1] = target: human IL-2 receptor βƔc heterodimer (human) (UniProt P14784)
[2] = target: mouse IL-2 receptor βƔc heterodimer (mouse)
[3] = target: human IL-2 receptor βƔc heterodimer (human) (UniProt P14784); test: SPR
[4] = target: human IL-2Rβ, biotinylated (human) (UniProt P14784); test: SPR
[5] = target: mouse IL-2 receptor βƔc heterodimer (mouse); test: SPR
[6] = target: mouse IL-2Rβ ectodomain, biotinylated (mouse); test: SPR
[7] = target: IL-2Rβγc (species not stated, Figure E3d) (not stated (human and mouse receptors made)) (UniProt P14784); test: BLI

EC50 of STAT5 phosphorylation in IL-2Rα- (CD25-) human YT-1 NK cells [1]: 0.05 nM | EC50 of STAT5 phosphorylation in IL-2Rα- mouse primary T cells [2]: 0.13 nM | Kd [3]: 18.8 nM | Kd [4]: 11.2 nM | Kd [5]: 38.4 nM | Kd [6]: 16.1 nM | Kd [7]: 6.9 nM
Molecule: Neoleukin-2/15 (designed binder)

Kd [3]: 301 nM | Kd [5]: 312 nM | Kd [6]: 214 nM
Molecule: Super-2 / Superkine (from UniProt P60568 21-153) (ligand)

Kd [5]: 492 nM | Kd [6]: 8110 nM
Molecule: human interleukin-2 (from UniProt P60568 21-153) (ligand)

Kd [6]: 1500 nM
B1: mouse interleukin-2 (ligand)
chain: APTSSSTSSSTAEAQQQQQQQQQQQQHLEQLLMDLQELLSRMENYRNLKLPRMLTFKFYLPKQATELKDLQCLEDELGPLRHVLDLTQSKSFQLEDAENFISNIRVTVVKLKGSDNTFECQFDDESATVVDFLRRWIAFCQSIISTSPQ
